Source: US20200354475A1 (KITE PHARMA, published 2020)

Target: T1, CAR comprising the anti-CD19 scFv FMC63 (SEQ ID NO: 1)
T1 construct: also called FMC63 CAR; CAR presenting the anti-CD19 scFv FMC63; not shown: rest of the CAR (hinge, transmembrane and signalling domains) is not described for the constructs used
Assay: immunohistochemistry on fixed cell pellets of CAR T cells presenting the FMC63 scFv, PBMC as control
Method: Several antibodies disclosed herein, (Clones 7 and 13) were assessed with respect to their ability to function as reagents in immunohistochemistry (IHC) studies. To create the fixed cell pellets for IHC staining, ˜2e6 CAR T cells presenting the anti-CD19 scFv FMC63 (SEQ ID NO: 1) were centrifuged and washed with PBS. The cells were resuspended in PBS containing 0.45% paraformaldehyde (PFA) and incubated on a shaking platform for 2 hours at room temperature. After the incubation, the cells were washed once more with PBS and resuspended in PBS with 5% BSA.

T1 sequence (chain, as listed by the source): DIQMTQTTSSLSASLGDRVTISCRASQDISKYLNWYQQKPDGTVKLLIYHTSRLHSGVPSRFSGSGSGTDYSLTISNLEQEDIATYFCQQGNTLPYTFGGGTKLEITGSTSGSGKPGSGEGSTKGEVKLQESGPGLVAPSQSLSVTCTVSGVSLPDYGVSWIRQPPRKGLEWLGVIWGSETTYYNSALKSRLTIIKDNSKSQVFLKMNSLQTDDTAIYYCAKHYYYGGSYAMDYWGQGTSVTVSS

B1: Clone 7 (antibody, V domains shown)
VH: QEQLEESGGDLVKPGGTLTVTCKASGFSFSNNGICWVRQAPGKGLEWIGCLYVGSSDTTYYASWAKGRFTISKSSSTTVTLQMTSLTVADTATYFCTINLGLWGPGTLVTVSS
VL: AIVVTQTPSSKSVPVGGTVTINCQASESVYNSDWLAWYQQKPGQPPKQLIYAASTLASGVPSRFKGSGSGTQFTLTISDVVCDDAATYYCAGYKSSSTDGIAFGGGTEVVVKG
notes: Rabbit monoclonal antibody from a hybridoma; also called antibody Clone 7
binding result: binds
